Measurements: patent US20240026407A1, “MODIFICATION OF SAPONINS” (GLAXOSMITHKLINE BIOLOGICALS SA, priority 2020, published 2024)

Experiments:
[1] = Experiment 4-2: screening of glucosidases for deglycosylation with purified QS-18 (1 mg/ml) at pH 6 and 30 deg C; assay type: biochemical, Quillaja saponaria; conditions: pH 6, 30 degC, 18 hrs, clarified lysate, LCMS/MS
Description: Lysates were prepared in an identical manner to Experiment 4-1 above, except the lysis buffer was prepared in 100 mM potassium phosphate buffer pH 6. QS-18 solution was prepared by dissolving QS-18 in 100 mM potassium phosphate buffer pH 6 (2 mg/mL).
12 uL clarified lysate was transferred into fresh 96 well PCR plates. 12 uL QS-18 solution was added (1 mg/ml final concentration), plates sealed and incubated overnight (30° C.) for 18 hrs. After quenching with 25 uL MeCN and shaking for 10 mins (RT), samples were analysed using the LC-MS/MS protocol described in Experiment 4-1 and enzyme activity determined in an analogous manner.

[2] = Experiment 4-1: screening of glucosidases for deglycosylation with purified QS-18 (0.04 mg/ml) at pH 7.5 and room temperature; assay type: biochemical, Quillaja saponaria; conditions: pH 7.5, room temperature, 20 h, clarified E. coli lysate, QS-18 2150 to QS-21 1988 by LCMS/MS
Description: Nucleotide sequences were sub-cloned into pET24b+ for expression. 10 uL of E. coli cells (One Shot® BL21(DE3) chemically competent E. coli) were transferred to each well of a 96 well PCR plate (prechilled on ice). 10 uL autoclaved water was added to the DNA, resuspended by pipetting, and 1 uL of plasmid DNA (15-30 ng) was transferred to the competent cells. Immediately after addition, the resulting mixture was mixed by pipetting. Cells were heat shocked by placing the plate in a thermal cycler at 42° C. for 30 seconds then transferred directly to an ice bath for 2 min. 100 uL sterile Lysogeny Broth (LB) medium was added to each well containing transformed cells. The content of each plate was transferred into a 96-deep well plate pre-aliquoted with 400 uL LB and the plate was incubated at 37° C. with shaking and 85% humidity for 1 hour. After outgrowth, 500 uL of sterile LB containing 100 ug/mL kanamycin was added to the plates containing cells and plates incubated at 37° C. with shaking overnight (18 hours) with humidity control (85%).
1000 mLs of Overnight Express Media was supplemented with 1 mL kanamycin 50 mg/mL and 20 mL of 50% v/v glycerol added (50 ug/mL kanamycin final and 1% glycerol). 96-Well Assay Block 2 mL plates were aliquoted with 380 uL of media per well. Pre-inoculum (20 uL) from transformation plates was added. The plates were sealed appropriately and incubated at 37° C. at 300 with shaking for 2 h. After 2 h the temperature was lowered to 20° C. and incubation continued for 20 h.
The liquid cultures were centrifuged for 10 minutes at 4° C. The supernatant was discarded, plates blotted on an absorbent material to remove residue and the plates frozen at −80° C.
Lysis buffer was prepared according to the following protocol: • 1. Polymyxin B sulphate (0.5 mg/mL) was suspended in 100 mM potassium phosphate pH 7.5 • 2. The mixture was sonicated until polymyxin B sulphate had dissolved • 3. Lysozyme (1 mg/mL) and benzonase (0.1 uL/mL lysis buffer) were added
2 copies of each cell pellet plate were removed from −80 degC freezer and allowed to thaw. 200 uL of lysis buffer was added to each well of one copy of the cell pellet plates. Plates were shaken at room temperature for 10 mins. 190 uL of cell pellet/lysis buffer was transferred to a corresponding fresh cell pellet plate. These plates were incubated at room temperature with shaking for 2 hours. Lysate was clarified by centrifugation (10 min, 4 degC).
QS-18 was obtained by analogous methods to Example 3, collecting a QS-18 containing phenyl fraction following phenyl treatment (presence of m/z corresponding to key components was confirmed by MS and the phenyl fraction then used without further treatment). QS-18 solution was prepared by diluting aqueous QS-18 (ca 1 mg/mL) with 100 mM potassium phosphate pH 7.5 to 0.2 mg/ml. 40 uL clarified lysate was transferred into fresh 96 well PCR plates. 10 uL QS-18 solution added to each well of lysate to a final concentration of 0.04 mg/ml. Incubated at room temperature with shaking for 20 h. Quenched with 50 uL MeCN and shaken at room temperature for 10 mins. Samples were analysed by LC-MS/MS using a Waters Acquity H class coupled to a Waters Xevo Tandem Quadrupole (TQD) Mass Spectrometer.
Enzyme activity was calculated as: […]
Candidate enzymes with % conversion >0.72%, i.e. >3 S.D. above negative control, were considered to be positive hits and are listed below in Table 7. Sample results are shown in FIG. 10 for a QS-21 standard, FIG. 11 for negative control and FIG. 12 for treatment with the glucosidase of SEQ ID No. 262.

B1: 84 (protein, listed as Tenericutes bacterium)
chain: MVNEELKTLLHTLSLTTKLKLLTGANFWESEKVLGTDLPIIVMNDGPFGVRKPTVNVDSGMLMEVIPATAFPTTSALASSFDPELLEKMGKTLATECIDQGVDLLLGPGINIKRSPLCGRNFEYFSEDPYLTSEMASGLVRGLQSKGVGATLKHYAVNNQEKERYTTNAIVDKRALNEIYLRPFHNVIKNTEPFSVMCSYNQINGRHASRHYKLLTEKLRNEANFKGLVVSDWGAVVDHVDSINAGLNLEMPGGYQNTAELEKAVKDGEIKLETIDEMITPLLKFMMYKRDNPKPKVKCDYKKNLEVAQEIAEKSAVLLRNEDNLLPINKTAKVGLIGNFAIKPRYQGSGSSQINPHTLVSVHDAFIQNDVNFVYADGYAEHEVKPNKKKIAEAVKVAKNSDVVVLCVGLPESYEVEGYDRKTLDMPPSHNELIKEVAKVNENIVIVLSTGSPVTMPWINDVKSILLTHLAGSMTGPATYNLLFGVTNPSGKLSETYPLSLDKGLPGGEFLTSDQNVLYRESLYVGYRYYDTFREQVLFPFGHGLSYTQFNTSHHEIEEVKDGYNITMEVTNIGHIRGAEVIGIYTGKSRSLLYGPRKELRAFKKVYLDPGEKQKINIFLPTESLKAYCPVKQEWVLENVNYNVYVGINVQTTDEIFQILVDDANDLSYLKNYQKENEMYYRRADFNPSIKDFTTLFGGESLPLFFANRKRPFTLANNISDTTDYWWGRTIYKIMAKTSRKLAGDDVVLQEMAVETIKELPFRSLSALSSGEVSTNQRDAILLLVNGKPIRGIFKFLRKKK
Expt 4-2 % conv [1]: 0.4%
Expt 4-1 % conv [2]: 0.8%

B2: 102 (protein, listed as Bacteroides fragilis)
chain: MKATTSLATSCRRLLLWGVLTLQCLFSTAQKRFTADVEQQAEKILSQMTLDEKLSYIGGINWMYTRPLERFGIPRLKMSDGPQGLGTHGPSTAYPCALMLAATWNEQLATEYGSALGKDCRARGVHVLLGPAVNIYRAPMCGRNFEYMGEDPYLTSRMATGYIKGVQGQGVMATIKHFIANNSDYDRDHISSDIDERTLNEIYFPSFRAAVQEAEVGAVMSSYNLLNGIYTTEHPWLLKDVLRQQWGFKGILMSDWGSTHHCIPAVKGGLDLEMPAGSKMQPEELKYYLRTGDITIETIDEKVRHILQTLLAFGFRETQQPDTHIPLKNPQCAQTALNVASEGLVLLKNTNQILPIRSGKVKTIAVVGKNAQGYVCGGGSGEVHPFQYVSVLDGIRKEAAERDIRVEYLDVYDYLPTIIFTDTERKQKGFRAQYFDNMNLEGTPKVEQTETKINYSWSGGTGLKEMPKEQFSVRWNGTICPQETDEYLFTLGGDDGYRLYIDGKLIADEWHEGAFRNSTYRCMLEAGKKYDLKIEYFQKGGGAAVNFIWKQKNASNNLFVEALNRNDLVVACIGFNSDTEGEGRDRTFELPEDEAQLLQNTLQSKRPVVGIVNAGGNVEMQSWEPSLKGLLWAWYGGQEAGTAIARTLFGELNPSGKLPITFEKRWEDNPTFHSYYDPDGDKHVEYAEGIFVGYRGYDKLKREVQYPFGYGLSYTRFKLSAPTVGTPKTDGSVTVTCKLTNTGRTAGAEVVQLYVSNKDTTVEHPEKELKGFRKVYLEPGETKSIEITVPAEAFSHYDTGSRRFVIDRGSHDILLGFSSRDIKAKMSVGISR
Expt 4-2 % conv [1]: 0.4%
Expt 4-1 % conv [2]: 0.7%

B3: 274 (protein, listed as Modestobacter marinus)
chain: MAGDTTAPAELDRPWTNTSLSPQERARELVAAMTLEQKIAQLHGAMDTIDIYSMKADTAEGMEQLAAQIRVERHVAAIEELGIPRFRITNGPVGVGMGDGTPSPPATALPMTIGLAAGFDPALAREYGTVIGSETATLGQHVLEGPGVCLHRTPISGRNFEYFSEDPYLSGVMGVEVARAIQEHGVIAMAKHYVCNDQEYERFRADVEVDERTLRELYLLPFEMLVKDADLAAIMSAYNRVRGTYATEHRYLLHTVLREEWGWQGYVQSDFWSCRSAAPAVNAGLDHEMPDAKWLNEDNVKAALADTSLEIETVDRALVRRYTQMFRFGQFDRPYDPGEIDAEGHGAISRRIGEQIAVLLKNDGAVLPLEPGVQSVVVIGQATYVDEACLGGGGSSKVDPLYTVRPMDGLRDVLQTLGSSADLREVTVADDLSNLAEAQAAAATADVVVIMAGLVATEGADQPDAHMLNDQDRMIAEVGQVNVRTVVVLKDGNPVLMPWIDAVPAVLEAWNQGAEDGHVVADLLFGVVNPAGKLPTTYPRSWADTPFAGHPERYPGTDEGAGYPVLRYSEGRQMGYRWYQAQGITPLFPFGHGLSYTTFELSDLAVSPERTDGAAPLTVQLTVANTGDVAGAEVAQVYLELPEAAQQPPKRLVGFCKIWLEPGAAERISVTIDPAATNHPLSVWDDGAHDFVVLPGEYTVFVGSSSEDTPLSATVTID
Expt 4-2 % conv [1]: 0.3%
Expt 4-1 % conv [2]: 0.9%

B4: 178 (protein)
chain: MSELYCPIPPRDQDIYRFRQQFGANLGSTFVLGPHDNTGESNELQLLKTSLASTGLEQTRQKWQSHWHSALTDDDLVWLKDVAQCRTLRLPLSFYSLGPLFCRGTAFEGDPSEVYHHCWSTVKHLIEKCWFHGIGILIDFQASASGINLCASAKDRTIARDCVAFLAQEITFHSMSAVVGLSVSSGCEPAPDMCECYDEILKIANAIDACLPVYIDDNQAQCNKRVFKGCESDIPQFKSDISIGKIQIPSQMMLPETEVREKINKAKAERSGFQEKVLSQVSESWGSNERQSFVHGWNLGYDDALRFFGAAVQGILAPRKGADKIYDIELWVQQRKRDIDPEQLGENSAAWEDGLRRGIQDFYNIIGI
modifications: Aspergillus niger
Expt 4-2 % conv [1]: 0.8%
Expt 4-1 % conv [2]: 0.5%

B5: 152 (protein, listed as Kocuria rosea)
chain: MSDLWHGEEHAPGESDTAMTDATRTSGRAARLTELVDRLSLAEKVHLLTGETAFTLPGNERIGLAALAFSDGPTGVRGLTFVGGDAVALFPSATLIAGAFDDGIAEEVGRMLAEEAQRQHIHVVLGPTINLHRTPLGGRLFEAYSEDPYLTGRTAAAYVRGMQERGTAACLKHLVANESETLRNFMDSRVPETALRELYLLPFEMAVQDAGAWSMMAAYNDVNGVAATEHDHVQNGIVKGEWAWDGLIMSDWFATKRTAASASGGLDLVMPGPGGPWGERLVTAVRAGEVAEETIDDHVLRLLHLAERVGGLTPPGRQSRPWAQDLPAVDSPQRKEQLRRIAVRGMTVVANDGVLPLAVEGDAGQDVALIGRHAIDTVDMGGGSAVVNPPYLSTIAEGLAALLGDRVRVADGPAVRTRPVPADPAFLTDPATGTPGMQVVLLGADGTELTRYHSDSPAISLDGHDDLGEVPATAVLTTILANDAGPVRLGAVGAGRWDLVAEGQELSAELRLEGQDPGEAMLRPPAFAETVELPAAATLTATVAPAPVDWREVLLGDPGLGLAEESHLLQMTTAGKTALVAAPAPRPDDDLLAAAEAAAVAAGTAVVVVGLTEEQETEAADKTTLVLPGRQDELVRRVATAAERTVVVVNAATPVLMPWLDQVDAVLVAGLPGQEGGHAVAAALTGALEPTGRLVTSWPAADGAAPAWDVVPDGDRALSYDDGTFIGHRGYHAGHAPAPLFWFGHGLGYGTWEYGTVRARAGEGGPVVDVELTNTSSRASRETVQVYLDPAEDDQPIRLIGYQGVDVPSGATAAVRVRCDDRLLRRWDDAAGTWAPLAGGGELVLARGLGDVRARVPLA
Expt 4-2 % conv [1]: 0.5%
Expt 4-1 % conv [2]: 1.1%
